Patent US6423539B1, “Adjuvant treatment by in vivo activation of dendritic cells” (The Board of Trustees of the Leland Stanford Junior …, priority 2000, dated 2002)

Assays:
circulating DC = details: administration to mice in vivo; cited from earlier work
circulating blood DC = assay: Clinical study: expansion and phenotype of circulating blood DC after Flt3L administration; assay type: in vivo, human
Procedure: Clinical studies were also performed to determine the effect of the activation methods in human patients. It was shown that administration of FL to patients with advanced cancer mobilizes DC precursors into the blood, resulting in an increase of circulating DC of 20 fold on average.
An expansion of circulating blood DC was found following Flt3L administration. PBMC from patients with advanced cancer were assessed either before or following 10 days of Flt3L administration. DC were characterized phenotypically by expression of HLA DR without expression of lineage markers (CD3, 14, 19, 56).
DC were gated on their expression of HLA DR and lack of lineage markers CD3, 14, 19, 56. Flt3L expanded DC express intermediate levels of CD4 and CD54 more homogeneously by comparison with unmobilized DC. Flt3L expanded DC, however, lack surface expression of CD86 and CD40 compared with unmobilized DC. Results are from one patient and are representative of three patients studied.

B1: FL: Flt-3 ligand, growth factor that stimulates proliferation of hematopoietic progenitor cells; DC mobilization agent (protein, UniProt P49771 27-235, looked up)
Fms-related tyrosine kinase 3 …: TQDCSFQHSPISSDFAVKIRELSDYLLQDYPVTVASNLQDEELCGGLWRLVLAQRWMERLKTVAGSKMQGLLERVNTEIHFVTKCAFQPPPSCLRFVQTNISRLLQETSEQLVALKPWITRQNFSRCLELQCQPDSSTLPPPWSPRPLEATAPTAPQPPLLLLLLLPVGLLLLAAAWCLHWQRTRRRTPRPGEQVPPVPSPQDLLLVEH
- increase in number of circulating DC (circulating DC): 10-30 fold
- phenotype of expanded human DC (circulating blood DC; gated HLA DR positive, lineage negative, one patient, representative of three): immature phenotype
- change in circulating blood DC precursors by flow cytometry (circulating blood DC; patients with advanced cancer, before vs. after 10 days of Flt3L): significant increase
- increase of circulating DC (circulating blood DC; patients with advanced cancer, on average): 20 fold
